Source: the RNAGym collection of RNA variant scans (doi:10.1073/pnas.2313332121)
Fewer inactive variants are shown than the library holds.

B1: TPR 5TU (parent)
chain: GGAUCUUCUCGAUCUAACAAAAAAGACAAAUCUGCCACAAAGCUUGAGAGCAUCUUCGGAUGCAGAGGCGGCAGCCUUCGGUGGCGCGAUAGCGCCAACGUUCUCAACUAUGACACGCAAAACGCGUGCUCCGUUGAAUGGAGUUUAUCAUG

Variants of: B1
Assay: polymerase ribozyme fitness, log enrichment relative to wild type (log ratio); higher = more active; in vitro selection for triplet polymerase activity
Summary of the method: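 PCR was used to build mutant libraries for each subunit of a heterodimeric triplet polymerase ribozyme, which were then transcribed. A single in vitro selection round, in triplicate, used a frozen incubation at −7 °C and recovered extended constructs by gel excision, streptavidin beads and RT-PCR. Fitness is the logarithm of genotype enrichment relative to wild-type enrichment, averaged over replicates with inverse-variance weights. The logarithm is base 2, and after Illumina sequencing only genotypes with ≥10 input reads and ≥1 read per output were kept.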

| Variant | polymerase ribozyme fitness (log ratio) |
| --- | --- |
| C118U U145G | -1.09 |
| U134G U148A | -3.87 |
| C132A G143U | ≤ -4.2 |
| U151G G152U | -3.49 |
| A137G U148A | -3.67 |
| G126A C149G | -3.13 |
| C118U G124U A142C | -1.96 |
| G128A U146G | -4.16 |
| U127A U144C | -3.74 |
| U148G | -3.37 |
| U148A | -2.72 |
| U148C | -1.53 |
| U135A U148G | -3.41 |
| A122U G136U | -2.24 |
| G140U G143A | ≤ -4.2 |
| G126A G133C | -0.815 |
| U135A C149G | -4.09 |
| C125G G126A | -3.42 |
| G128U U139A A142G | -4.07 |
| G124A G133U U135C | -3.82 |
| G136A G141U | 1.57 |
| G136C A142C U146A | -2.66 |
| G124A U127C | -2.79 |
| A119G A120U | 0.0433 |
| G117A G141C | -3.29 |
| A119U G124U U146A | -0.483 |

| Variant | polymerase ribozyme fitness (log ratio) |
| --- | --- |
| U139A | -3.57 |
| U139G | -0.159 |
| U139C | -2.57 |
| C132G G141C | -3.73 |
| A137C C149U | -3.9 |
| A119U U148A | -3.01 |
| C125G U145G | -2.69 |
| A122C C125A G140A G143U | ≤ -4.2 |
| U145C | 0.096 |
| U145G | -0.131 |
| U145A | 0.192 |
| G133U U144A | -3.29 |
| G128A U139G | -4.08 |
| A122G | -0.303 |
| A122C | -0.398 |
| A122U | -0.218 |
| A150G G152U | -3.43 |
| G136C U145A C149G | ≤ -4.2 |
| U127C | -1.3 |
| U127A | -2.94 |
| U127G | -3.06 |
| G126A G140U | -3.43 |
| G117C A137G | -0.587 |
| A119C G133C | -1.83 |
| A142U U144C | -3.6 |
| G141U U146G | 1.06 |

| Variant | polymerase ribozyme fitness (log ratio) |
| --- | --- |
| A137G G143C | -3.85 |
| A121G U148A | -3.78 |
| G141A U146C | 0.27 |
| U134G U144G | -1.51 |
| C125G U134A G140A | ≤ -4.2 |
| U130G U135C | -4.07 |
| G136A | 0.579 |
| G136U | -1.9 |
| G136C | -2.62 |
| G140C G143U | -3.7 |
| G128U G141A | -3.74 |
| A121U G141A | 0.973 |
| C123G G141C | -0.168 |
| U148G A150G | -3.79 |
| U144C A147G | -0.508 |
| G126A G141U | -2.59 |
| C131U U146C G152C | -1.2 |
| G124U G141U | 0.513 |
| G140U U145C | -3.66 |
| C123U A137G | -0.927 |
| G117A A150C | -3.86 |
| C129A G133C | -3.55 |
| U144A A150U | -1.5 |
| G140C U148G | -4.14 |
| C125U U145A | -1.23 |
| U139A U146A | ≤ -4.2 |

| Variant | polymerase ribozyme fitness (log ratio) |
| --- | --- |
| A119G G143A | 1.13 |
| U127G G143A A147G | ≤ -4.2 |
| A120G G124A | 0.00161 |
| U144G U148G | -3.38 |
| A147C U148A | -3.81 |
| A120C G152A | -2.33 |
| U146A U148A | -3.37 |
| U127A U139G G152U | ≤ -4.2 |
| A121U U135A | -0.658 |
| G141A G143C | -3.92 |
| G126A U148C | -2.93 |
| A137C U144A U146A | -3.95 |
| G133U | -2.62 |
| G133C | -1.65 |
| G133A | -3 |
| G133A A142G | ≤ -4.2 |
| C118U A147C | 0.751 |
| A137C A150G | -4.17 |
| A142U U146G | -1.2 |
| A121U C131U U134A | -2.42 |
| G140A U146G | -3.51 |
| U135G A142C | -2.54 |
| G126A A150C | -4.16 |
| G136A A142C | -0.134 |
| G126A U135C | -1.38 |
| A119G G128C | -1.98 |

| Variant | polymerase ribozyme fitness (log ratio) |
| --- | --- |
| A120G U127C | -2.22 |
| A142G | -0.833 |
| A142U | -0.482 |
| A142C | -0.793 |
| U130C A138G | -3.28 |
| A119C U139C A142C | -4.13 |
| U134A G141C | -3.42 |
| C123U G141U | -0.894 |
| U135C G141U | -1.69 |
| G133U G141C | -3.81 |
| G133U G141U | -2.6 |
| C118G A122G | -0.988 |
| C123G G133U | -3.68 |
| C118A U139G | -0.933 |
| A120U U148G | -3.59 |
| A120G U134G U148G | -3.72 |
| A121C U139G G140A U144G | -4.07 |
| G128U U139C | -3.96 |
| A122C C125A | -0.874 |
| A121U U127C G143C | -4.06 |
| A120C | -0.331 |
| A120G | 0.00404 |
| A120U | -0.233 |
| U127G U145G | ≤ -4.2 |
